The values below come from patent publication US20210115144A1 (Dana-Farber, published 2021).

One assay has as its target T1, KIR2DL1 (human, UniProt P43626 22-348).
T1 construct: whole, on cells
The assay can be described thus: cell microarray, HHLA2-mIgG2a on fixed transfected HEK293 cells, AF647 anti-mouse IgG detection. As for the experimental part: (§1) Human HHLA2-mIgG2a fusion protein was added to slides of fixed, transfected HEK293 cell slides at a 20 ug/ml concentration, and the protein was detected with an AF647 labeled anti-mouse IgG detection antibody. Two replicate slides were screened for each of the 13 slide sets. Fluorescent images were analyzed and quantitated (for transfection efficiency) using ImageQuant software (GE). A protein ‘hit’ was defined as duplicate spots showing a raised signal compared to background levels. This was achieved by visual inspection using the images gridded on the ImageQuant software.
(§2) Addition of the AF647 labeled anti-mouse IgG detection antibody alone in the absence of HHLA2-mIgG2a produced no signal. The selectivity of HHLA2 binding to KIR3DL3 was evaluated using a panel of 14 KIR receptors arrayed on slides.

For a further assay, the target named is T2, KIR2DL2 (human, UniProt P43627 22-348).
T2 construct: whole, on cells
T2 sequence (P43627 22-348): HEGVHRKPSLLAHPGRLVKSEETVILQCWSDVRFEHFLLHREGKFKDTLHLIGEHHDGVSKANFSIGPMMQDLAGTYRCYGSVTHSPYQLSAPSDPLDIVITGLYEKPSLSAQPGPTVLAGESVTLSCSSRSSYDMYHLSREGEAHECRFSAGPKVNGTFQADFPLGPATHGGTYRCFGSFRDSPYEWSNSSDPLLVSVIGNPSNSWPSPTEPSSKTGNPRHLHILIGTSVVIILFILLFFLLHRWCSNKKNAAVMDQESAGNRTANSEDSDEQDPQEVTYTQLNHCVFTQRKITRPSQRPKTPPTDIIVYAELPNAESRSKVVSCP
The description is as above. As for the experimental part:
as §1, §2

In the next assay the target is T3, KIR2DL4 (human, UniProt Q99706 22-377).
T3 construct: whole, on cells
T3 sequence (Q99706 22-377): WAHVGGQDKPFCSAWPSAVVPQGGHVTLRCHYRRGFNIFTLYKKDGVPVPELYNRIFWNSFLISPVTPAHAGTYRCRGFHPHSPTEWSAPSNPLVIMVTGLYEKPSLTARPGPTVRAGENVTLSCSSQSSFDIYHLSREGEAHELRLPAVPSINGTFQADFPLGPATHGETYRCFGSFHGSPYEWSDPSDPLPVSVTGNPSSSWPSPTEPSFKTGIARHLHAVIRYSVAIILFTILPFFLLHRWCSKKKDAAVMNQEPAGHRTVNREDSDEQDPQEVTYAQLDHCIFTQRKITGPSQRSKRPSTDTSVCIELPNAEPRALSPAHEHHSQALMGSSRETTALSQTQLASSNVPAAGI
The assay is described as above. As for the experimental part: as §1, §2

For a further assay, the target named is T4, KIR2DL5A (human, UniProt Q8N109 22-375).
T4 construct: whole, on cells
T4 sequence (Q8N109 22-375): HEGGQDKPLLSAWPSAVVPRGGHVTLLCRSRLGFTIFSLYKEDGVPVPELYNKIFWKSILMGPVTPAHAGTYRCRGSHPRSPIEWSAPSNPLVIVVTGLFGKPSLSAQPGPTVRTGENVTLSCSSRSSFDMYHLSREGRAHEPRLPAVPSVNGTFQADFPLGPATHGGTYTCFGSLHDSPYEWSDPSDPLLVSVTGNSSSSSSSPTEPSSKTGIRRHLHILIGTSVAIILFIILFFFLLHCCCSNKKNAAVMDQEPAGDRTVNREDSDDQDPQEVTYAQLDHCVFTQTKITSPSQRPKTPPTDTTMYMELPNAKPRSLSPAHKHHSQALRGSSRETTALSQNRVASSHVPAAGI
Described as above. Here is the method:
as §1, §2

For another assay, the target named is T5, KIR2DL5B (human, UniProt Q8NHK3 22-375).
T5 construct: whole, on cells
T5 sequence (Q8NHK3 22-375): as the sequence (Q8N109 22-375) above, with N152D, G174S counted along it
Described as above. As for the experimental part: as §1, §2

A further assay has as its target T6, KIR3DL1 (human, UniProt P43629 22-444).
T6 construct: whole, on cells
The description is as above. Here is the method:
as §1, §2

For the next assay, the target named is T7, KIR3DS1 (human, UniProt Q14943 22-382).
T7 construct: whole, on cells
T7 sequence (Q14943 22-382): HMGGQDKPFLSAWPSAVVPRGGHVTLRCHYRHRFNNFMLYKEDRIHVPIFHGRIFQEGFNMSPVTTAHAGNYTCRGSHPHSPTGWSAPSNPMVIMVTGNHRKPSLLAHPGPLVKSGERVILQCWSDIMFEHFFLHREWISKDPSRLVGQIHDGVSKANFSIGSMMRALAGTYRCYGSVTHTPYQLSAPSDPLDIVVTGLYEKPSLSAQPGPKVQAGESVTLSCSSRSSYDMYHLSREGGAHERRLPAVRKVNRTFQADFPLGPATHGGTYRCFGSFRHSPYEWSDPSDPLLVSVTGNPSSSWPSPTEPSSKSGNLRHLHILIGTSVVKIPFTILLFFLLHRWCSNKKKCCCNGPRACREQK
The assay is described as above. As for the experimental part:
as §1, §2

The next assay addresses T8, KIR3DL2 (human, UniProt P43630 22-455).
T8 construct: whole, on cells
Described as above. As for the experimental part:
as §1, §2

Assay [1] deals with T9, human KIR3DL3 expressed on transfected cells (HEK293 microarray, 293T, 300.19) (human, UniProt Q8N743 26-410).
T9 construct: also called CD158Z; KIR3DL7
T9 sequence (Q8N743 26-410 H321N limits assumed): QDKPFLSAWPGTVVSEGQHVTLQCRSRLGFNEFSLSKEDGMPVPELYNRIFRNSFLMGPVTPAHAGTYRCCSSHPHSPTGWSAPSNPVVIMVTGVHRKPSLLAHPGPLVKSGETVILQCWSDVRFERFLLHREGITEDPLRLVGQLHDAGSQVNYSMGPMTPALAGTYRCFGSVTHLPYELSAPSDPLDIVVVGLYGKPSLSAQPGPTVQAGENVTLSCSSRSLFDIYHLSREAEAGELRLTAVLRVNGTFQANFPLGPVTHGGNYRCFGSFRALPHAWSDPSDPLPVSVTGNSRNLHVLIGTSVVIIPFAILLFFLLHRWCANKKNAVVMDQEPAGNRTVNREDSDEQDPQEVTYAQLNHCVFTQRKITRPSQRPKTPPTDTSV
The assay can be described thus: cell microarray, HHLA2-mIgG2a on fixed KIR-transfected HEK293 cells, AF647 anti-mouse IgG detection. Here is the method:
as §1, §2

T6 sequence (P43629 22-444): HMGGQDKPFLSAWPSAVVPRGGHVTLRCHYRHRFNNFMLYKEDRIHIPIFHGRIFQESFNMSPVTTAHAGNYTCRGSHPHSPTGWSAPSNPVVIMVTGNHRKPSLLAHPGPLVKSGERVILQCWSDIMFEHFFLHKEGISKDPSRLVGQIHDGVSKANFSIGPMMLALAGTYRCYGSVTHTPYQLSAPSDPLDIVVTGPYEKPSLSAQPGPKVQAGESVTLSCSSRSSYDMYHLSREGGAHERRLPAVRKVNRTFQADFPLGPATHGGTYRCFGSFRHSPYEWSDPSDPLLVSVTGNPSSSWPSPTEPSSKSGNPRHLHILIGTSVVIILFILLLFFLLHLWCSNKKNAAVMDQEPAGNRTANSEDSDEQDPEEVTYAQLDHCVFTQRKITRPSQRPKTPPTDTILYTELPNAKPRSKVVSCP
T8 sequence (P43630 22-455): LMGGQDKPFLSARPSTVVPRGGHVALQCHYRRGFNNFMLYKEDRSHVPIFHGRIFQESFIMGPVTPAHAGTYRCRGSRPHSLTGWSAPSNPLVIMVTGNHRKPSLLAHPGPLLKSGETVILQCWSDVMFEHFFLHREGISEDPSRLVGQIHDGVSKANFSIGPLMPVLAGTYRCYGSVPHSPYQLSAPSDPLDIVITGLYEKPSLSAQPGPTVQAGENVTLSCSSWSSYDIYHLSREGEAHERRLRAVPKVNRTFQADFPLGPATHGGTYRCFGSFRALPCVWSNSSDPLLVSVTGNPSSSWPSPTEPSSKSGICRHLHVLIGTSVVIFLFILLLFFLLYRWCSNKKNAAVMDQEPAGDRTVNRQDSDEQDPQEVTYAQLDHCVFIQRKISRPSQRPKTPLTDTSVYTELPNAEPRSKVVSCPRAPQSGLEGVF
T1 sequence (P43626 22-348): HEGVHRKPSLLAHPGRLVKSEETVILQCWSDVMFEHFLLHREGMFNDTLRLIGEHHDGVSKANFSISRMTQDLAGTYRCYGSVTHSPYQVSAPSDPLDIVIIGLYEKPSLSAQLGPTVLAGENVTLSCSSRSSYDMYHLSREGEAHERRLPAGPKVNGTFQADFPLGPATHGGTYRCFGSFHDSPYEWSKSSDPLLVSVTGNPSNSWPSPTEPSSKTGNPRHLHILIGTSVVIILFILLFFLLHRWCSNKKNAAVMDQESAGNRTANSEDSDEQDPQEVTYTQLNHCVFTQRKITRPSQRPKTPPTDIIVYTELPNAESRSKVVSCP

B1: human HHLA2-mIgG2a fusion protein (Fc fusion, not shown: a dimerising Fc or GST)
chain: IFPLAFFIYVPMNEQIVIGRLDEDIILPSSFERGSEVVIHWKYQDSYKVHSYYKGSDHLESQDPRYANRTSLFYNEIQNGNASLFFRRVSLLDEGIYTCYVGTAIQVITNKVVLKVGVFLTPVMKYEKRNTNSFLICSVLSVYPRPIITWKMDNTPISENNMEETGSLDSFSINSPLNITGSNSSYECTIENSLLKQTWTGRWTMKDGLHKMQSEHVSLSCQPVNDYFSPNQDFKVTWSRMKSGTFSVLAYYLSSSQNTIINESRFSWNKELINQSDFSMNLMDLNLSDSGEYLCNISSDEYTLLTIHTVHVEPSQETASHN
notes: also called hHHLA2-mIgG2a; HHLA2-Fc
As to B1, the binding result in the assay with KIR2DL1, with KIR2DL2, with KIR2DL4, in the assay with KIR2DL5A, with KIR2DL5B and in the assay with KIR3DL1 was “no binding (tested: 20 ug/ml)” throughout. For the same molecule, the binding result was “no binding (tested: 20 ug/ml)” with KIR3DS1, “no binding (tested: 20 ug/ml)” with KIR3DL2 and “binds” in assay [1].
